The values that follow come from patent publication US20170081400A1 (CEPHALON, published 2017).

The target of assay [1] is T1, human TL1A extracellular domain with N-terminal HIS and FLAG tag (human) (UniProt O95150).
T1 sequence: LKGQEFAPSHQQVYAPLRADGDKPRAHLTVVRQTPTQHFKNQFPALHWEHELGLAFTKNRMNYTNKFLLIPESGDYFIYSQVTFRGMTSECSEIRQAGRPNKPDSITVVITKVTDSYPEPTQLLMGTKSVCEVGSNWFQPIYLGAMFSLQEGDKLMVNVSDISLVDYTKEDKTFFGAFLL
The assay can be described thus: cell-based or functional assay.

Assay [2] has as its target T2, human TL1A extracellular domain with N-terminal HIS and FLAG tag (human, UniProt O95150 72-251).
T2 construct: whole entry named. ~70 kDa fraction purified by gel filtration
T2 sequence: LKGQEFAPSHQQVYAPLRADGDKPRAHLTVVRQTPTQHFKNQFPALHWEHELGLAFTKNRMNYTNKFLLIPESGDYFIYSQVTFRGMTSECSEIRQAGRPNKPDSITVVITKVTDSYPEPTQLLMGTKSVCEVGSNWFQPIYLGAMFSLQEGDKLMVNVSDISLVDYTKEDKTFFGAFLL
The assay can be described thus: SPR run 2; supernatant on Protein A; TL1A 10 ug/mL; timepoint 44. The text has this:
(§1) 1.5. Antibody expression and antigen binding as determined by SPR. Using a CM5 sensor chip (GE Healthcare) Protein A (Pierce) was coupled to the chip surface using an amine coupling kit (GE Healthcare). Protein A was coupled on flow cell 1 and 2 (or alternatively 3 and 4) using a BIACORE® T200. […] The amount of supernatant or purified protein (as well as the concentration) injected during the capture stage varied between runs and is specified in the header of the Tables 3-11. At the end of injection of the supernatant or purified antibody the change in response units was measured. This value was reported as Capture Level in Tables 3-11. […] The response units were measured prior to the end of the dissociation phase. […] The sensorgrams were double referenced (flow cell 2 is subtracted from flow cell 1 and a buffer blank). As there were a large number of antibody variants to screen, these were screened across different runs (Tables 3-11). […] A summary of the conditions used in each run is below:
(§2) 2.1. […] In some experiment the antibodies were purified using Protein A chromatography (See 1.4) and purified antibodies were used in BIACORE® (GE Healthcare) experiments.

For assay [3], the target named is T2, human TL1A extracellular domain with …. As to the kind of experiment: SPR run 2; supernatant on Protein A; TL1A 10 ug/mL; timepoint 220.
Excerpt: as §1, §2

B1: 320-198 (antibody, human IgG1, name in Kabat numbering, V domains shown)
VH: QVQLVQSGAEVKKPGASVKVSCKASGYTFTSYDINWVRQAPGQGLEWMGWLNPNSGNTGYAQKFQGRVTMTADRSTSTAYMELSSLRSEDTAVYYCAREVPETAAFEYWGQGTLVTVSS
VL: QSVLTQPPSVSGAPGQRVTISCLSSSSDIGAGLGVHWYQQLPGTAPKLLIEGYYNRPSGVPDRFSGSKSGTSASLTITGLLPEDEGDYYCQSYDGTLSALFGGGTKLTVLG
notes: human IgG1, lambda
For B1, in assay [1], the Antibody IC50, TL1A induced caspase potency assay in TF-1 cells came to 0.01 µg/mL and the Fold improvement over 320-179, TL1A induced caspase potency assay in TF-1 cells is 1 fold. In addition, the “TL1A Binding Level (Early)” value in assay [2] was 262 RU. In assay [3], the “TL1A Binding Level (Late)” value is 241 RU.

B2: 320-248 (antibody, human IgG1, name in Kabat numbering, V domains shown)
VH: QVQLVQSGAEVKKPGASVKVSCKASGYTFTSYDINWVRQAPGQGLEWMGWLNPNSGNTGYAQKFQGRVTMTADRSTSTAYMELSSLRSEDTAVYYCAREVPETAAFEYWGQGTLVTVSS
VL: QSVLTQPPSVSGAPGQRVTISCTSSSSDWGAGLGVHWYQQLPGTAPKLLIEGYYNRPSGVPDRFSGSKSGTSASLTITGLLPEDEGDYYCQSYDGTLSALFGGGTKLTVLG
notes: human IgG1, lambda
For B2, the “TL1A Binding Level (Early)” value in assay [2] was found to be 96 RU. Also, the “TL1A Binding Level (Late)” value in assay [3] is 30 RU.

B3: 320-251 (antibody, human IgG1, name in Kabat numbering, V domains shown)
VH: QVQLVQSGAEVKKPGASVKVSCKASGYTFTSYDINWVRQAPGQGLEWMGWLNPNSGNTGYAQKFQGRVTMTADRSTSTAYMELSSLRSEDTAVYYCAREVPETAAFEYWGQGTLVTVSS
VL: QSVLTQPPSVSGAPGQRVTISCTSSSSDISAGLGVHWYQQLPGTAPKLLIEGYYNRPSGVPDRFSGSKSGTSASLTITGLLPEDEGDYYCQSYDGTLSALFGGGTKLTVLG
notes: human IgG1, lambda
For B3, the “TL1A Binding Level (Early)” value in assay [2] is 134 RU. Also, the “TL1A Binding Level (Late)” value in assay [3] is 50 RU.

B4: 320-250 (antibody, human IgG1, name in Kabat numbering, V domains shown)
VH: QVQLVQSGAEVKKPGASVKVSCKASGYTFTSYDINWVRQAPGQGLEWMGWLNPNSGNTGYAQKFQGRVTMTADRSTSTAYMELSSLRSEDTAVYYCAREVPETAAFEYWGQGTLVTVSS
VL: QSVLTQPPSVSGAPGQRVTISCTSSSSDIAAGLGVHWYQQLPGTAPKLLIEGYYNRPSGVPDRFSGSKSGTSASLTITGLLPEDEGDYYCQSYDGTLSALFGGGTKLTVLG
notes: human IgG1, lambda
For the molecule B4, in assay [2], the “TL1A Binding Level (Early)” value came to 180 RU. The “TL1A Binding Level (Late)” value in assay [3] was determined as 115 RU.

B5: 320-246 (antibody, human IgG1, name in Kabat numbering, V domains shown)
VH: QVQLVQSGAEVKKPGASVKVSCKASGYTFTSYDINWVRQAPGQGLEWMGWLNPNSGNTGYAQKFQGRVTMTADRSTSTAYMELSSLRSEDTAVYYCAREVPETAAFEYWGQGTLVTVSS
VL: QSVLTQPPSVSGAPGQRVTISCTSSSSDKGAGLGVHWYQQLPGTAPKLLIEGYYNRPSGVPDRFSGSKSGTSASLTITGLLPEDEGDYYCQSYDGTLSALFGGGTKLTVLG
notes: human IgG1, lambda
Regarding B5, the “TL1A Binding Level (Early)” value in assay [2] was 32 RU. In assay [3], the “TL1A Binding Level (Late)” value turned out to be 23 RU.

B6: 320-247 (antibody, human IgG1, name in Kabat numbering, V domains shown)
VH: QVQLVQSGAEVKKPGASVKVSCKASGYTFTSYDINWVRQAPGQGLEWMGWLNPNSGNTGYAQKFQGRVTMTADRSTSTAYMELSSLRSEDTAVYYCAREVPETAAFEYWGQGTLVTVSS
VL: QSVLTQPPSVSGAPGQRVTISCTSSSSDLGAGLGVHWYQQLPGTAPKLLIEGYYNRPSGVPDRFSGSKSGTSASLTITGLLPEDEGDYYCQSYDGTLSALFGGGTKLTVLG
notes: human IgG1, lambda
As for B6, the “TL1A Binding Level (Early)” value in assay [2] was found to be 205 RU. Further, the “TL1A Binding Level (Late)” value in assay [3] was 162 RU.

B7: 320-249 (antibody, human IgG1, name in Kabat numbering, V domains shown)
VH: QVQLVQSGAEVKKPGASVKVSCKASGYTFTSYDINWVRQAPGQGLEWMGWLNPNSGNTGYAQKFQGRVTMTADRSTSTAYMELSSLRSEDTAVYYCAREVPETAAFEYWGQGTLVTVSS
VL: QSVLTQPPSVSGAPGQRVTISCTSSSSDYGAGLGVHWYQQLPGTAPKLLIEGYYNRPSGVPDRFSGSKSGTSASLTITGLLPEDEGDYYCQSYDGTLSALFGGGTKLTVLG
notes: human IgG1, lambda
In the case of B7, in assay [2], the “TL1A Binding Level (Early)” value came to 77 RU. For the same molecule, the “TL1A Binding Level (Late)” value in assay [3] is 28 RU.
